B1: SEQ_ID_#1005 (nucleic acid, listed as Homo sapiens)
DNA: ATAGATTCTGCAGCATGGCAAACAGGTAATACTTAAAGCCAAATGGCGCTTCGGCTTATTTCAATACTATTTTTATGTAAAGATCAGTGTGAGAATATCAGCTCAATGGTTGAGGTTCTAGGATCAATTGCCTTGCAGTTTTTATACTAGCTTTTGATATCTTTTGCCTATTAAAACACTTTGTGAACTTTAGAATTAAGGAACTAAAAAATATTTACCATAAGTCCAAGTTATGACTTGAGGATCATATCTGATTAGAACTGTGGCAGAACTACTAGAAAAAGATTCTGCAAATTGGTTTCAGTGATTCTTGTTGATGTAATCAACAAGATTACATAATCAACAATAATAGATATTGAACCAAAATGATCCTTTTTTTAAGTTTAAGGTTATTTAGTTTCTCTTGCAAGGATATGATTTAGTCCTAATAGGGAATATGTGTATGTACTGGTGGGGAGCAGTGGGCTTGCTGCATGTATGTATGTTTTAAAATTAATAAATATTATCTTACTGGGCTCCATAGATGGTTTAAATTTAGATTTATTTAATTAAGAGGCTATAAATAATATATACACTACTGTATGGTATTTAACAAATAAGTTTTAAATCTGTTAATTCTTCTGGAAAACTTTGGATGTAGGGATGGCAAGCTAATTTTCTTGTATAGCTGGTGATATAAGCAGCATGGTCATAAAATAACATTTCTTATAAAGAC
B2: SERPINB1 (nucleic acid, listed as Homo sapiens)
DNA: GCTCGGAGCCCGGAGCGTGCCTCGGCGGCCTGTCGGTTTTCACCATGGAGCAGCTGAGCTCAGCAAACACCCGCTTCGCCTTGGACCTGTTCCTGGCGTTGAGTGAGAACAATCCGGCTGGAAACATCTTCATCTCTCCCTTCAGCATTTCATCTGCTATGGCCATGGTTTTTCTGGGGACCAGAGGTAACACGGCAGCACAGCTGTCCAAGACTTTCCATTTCAACACGGTTGAAGAGGTTCATTCAAGATTCCAGAGTCTGAATGCTGATATCAACAAACGTGGAGCGTCTTATATTCTGAAACTTGCTAATAGATTATATGGAGAGAAAACTTACAATTTCCTTCCTGAGTTCTTGGTTTCGACTCAGAAAACATATGGTGCTGACCTGGCCAGTGTGGATTTTCAGCATGCCTCTGAAGATGCAAGGAAGACCATAAACCAGTGGGTCAAAGGACAGACAGAAGGAAAAATTCCGGAACTGTTGGCTTCGGGCATGGTTGATAACATGACCAAACTTGTGCTAGTAAATGCCATCTATTTCAAGGGAAACTGGAAGGATAAATTCATGAAAGAAGCCACGACGAATGCACCATTCAGATTGAATAAGAAAGACAGAAAAACTGTGAAAATGATGTATCAGAAGAAAAAATTTGCATATGGCTACATCGAGGACCTTAAGTGCCGTGTGCTGGAACTGCCTTACCAAGGCGAGGAGCTCAGCATGGTCATCCTGCTGCCGGATGACATTGAGGACGAGTCCACGGGCCTGAAGAAGATTGAGGAACAGTTGACTTTGGAAAAGTTGCATGAGTGGACTAAACCTGAGAATCTCGATTTCATTGAAGTTAATGTCAGCTTGCCCAGGTTCAAACTGGAAGAGAGTTACACTCTCAACTCCGACCTCGCCCGCCTAGGTGTGCAGGATCTCTTTAACAGTAGCAAGGCTGATCTGTCTGGCATGTCAGGAGCCAGAGATATTTTTATATCAAAAATTGTCCACAAGTCATTTGTGGAAGTGAATGAAGAGGGAACAGAGGCGGCAGCTGCCACAGCAGGCATCGCAACTTTCTGCATGTTGATGCCCGAAGAAAATTTCACTGCCGACCATCCATTCCTTTTCTTTATTCGGCATAATTCCTCAGGTAGCATCCTATTCTTGGGGAGATTTTCTTCCCCTTAGAAGAAAGAGACTGTAGCAATACAAAAATCAAGCTTAGTGCTTTATTACCTGAGTTTTTAATAGAGCCAATATGTCTTATATCTTTACCAATAAAACCACTGTCCAGAAAAAAAAAAAAAAAAAAAA
B3: SEQ_ID_#953 (nucleic acid, listed as Homo sapiens)
DNA: TGGTTTCGGTCTATTTATCCAGGGACACCACAGCTTTGGAGGCAGCAAACATGCCCATTTGTTACTATTTGCAAAGATGGTGTACACCAAACATGGGCTTTCCGTAAACAAATTAAAAAGTAATAAAGTGGCCCCATCTGCATACTAGAGCAATGTGCTTCCATTTTAATGAAGCTTGCTATAGAAAAGCCATTTGATGGCTTGTCAAAAGCGTGAATGCCTGTGGCTGAACGTGGAAGTATGCTGTGGTGCAAAGACGTAGTCCTTTCTTCCTCCAGTATGCACGGGGCACCTGCCACACCTGCTGCAAGGACCTGGTCCTGCCCCTAGGCCATCTGCTACGCCAAGGAGACCCAGGTCTTTCCAGTTTCTACCAGGCCCTTTAATGCTCTATCCTGTGGCCCACCCAAGGTTGCAGAGCTGGTAAGCTCTGGAGGTTGAACACAGGCAGTCTGGGCAGAGTGCCTGCTCACTGTCCTGCCTCTCCT
B4: SEQ_ID_#978 (nucleic acid, listed as Homo sapiens)
DNA: GTATATGTTAAAAAAAGAGAAGGTCGCATTATGGACAGACTTCGTGAATGGGAATTTGCTTAGAATTGTGAGTAGTTCTGAATTAGAAAAGTATGTGAAGGAAAGGCAGCTGTAAACGTATTGTGCCCTGGAGAGTTGTACACATGTTGAAATGTAATCTGGGCTTACCTGATCCATTTGGAGTGGATGTCACTGCCGAGTCTGTTCTCACATGGAACCATGTGTGTGGGGTTGCCAGCCTCACAGATACAATCAATCCTATTCCCCTCTGACATAAGGAACTCCTCTGGAGTGGCAGAGTCTTATCACAGAAGGCAGCCACCATTTCACCAAAACAAAAGTTCACGGCATTCAATTCCTTTTTCCTTTAGCTATTTATATATGCAGTACTCTCAGTCATATGCAGAAATACTTTTTTTTTTTAATTAATAGTTACAGGCTTGTTGGTCCAGTGGGATTTGGGTAGGGGGAGAAAGATACCTTCTAAAATGGATCAATAGAACCAAAATAATACAGCATGTTCTATAACCACAAGGAAATCAAATGATCCTGTCATGATTCCAGTTAGTCATAACTATGTTAGCAGTGCTAAATGCATTTTAGAAATGGTGACTTCTGTGGTTTTCCTAGCATTTGTCTCTAACAAATGGTGAAATAATTACTCATGGCCCTCTCTGCCATTGTCTTTCATTTTTTCACAGTGAAATTAGACCCCTTTACTTCACCATTCTGCCACTGCAAATTAAGTATAAAGAAAATAGCAAGAGTGTCCACACCAGTAGACAGTAAGCTTCTCTACCTGTAAGTGATGAAATCATAGCTAATGCACTTGCCATGGAGTTTTCAAGATGATTGGTGTCAGACAGTTTTCACTTTGTTTAAAAAGTGTTGGTGGCCTTTTGTGGTGGTGTTACAATCCTCTGGGGGCTTAGGAGGATGTTGATGCAACTTTTAGAAGCTTTTAATTTCAAAAACAACTCAAAAATCTGAAGGACAGTCATAGCTGCCACTCAGCCCCAGTTAGTCAAACCCCAGTGACCTTTGCCCCTGGTTGCCAAGGGCTTTGCAACATCAAGCAGGGAAATAAGGATCTGTCTGTTTAGTGGATACCGTGTATCCTTTAATAGACCAGGTAACAGTTCGTGTTAGTTTAGACTATTGTTTTGTACTGTACTTTCTTGGGTGGCAGAGGAAAGAAAAGTAAAACATT
B5: SEQ_ID_#1002 (nucleic acid, listed as Homo sapiens)
DNA: CCACCGCCTATCCCAAAACCTATAAGAACCAATGATAATCCCACTACCCTTTGATGACTCTCTTTTTGGACTCAGCCCGCCTGCACCCAGGTGAAATAAACAGCCTCGTTGCTCACACAAAGCCTGTTTGGTGGTCTCTTCACACGGACGCATGAGACATTTGGTGCCGAAGACCCGGGTCAGCGGGACTCCTTCGGGACAGCAGTCCCCTGTCCTCACCTTCACTCCCTGAAGAGATCCACCTACAACCTCAGGTCCGCAGACCAACCAGCCCAAGGAACATCTCACTGATTTTAAATTGGACTCTCTTCACACGGGCGAGTGTGACATTTGGTGCCGAAGACCCAGGACAGGAGGACTCCTTTGGGAGACCGGTCTCCTGTCCTCGCCCTCACTCCGTGAGGAGATCCACCTGCAACCTCAGGTCCTCAGACCAACCAGCCGAAGGAACATCTCACCAATTTCAAATGGGCTTAGCGGCTGAAGACTGATGCTGCCTGGTCGCCTCGGAAGCCCCCTGGACCATCATGGACGCCGAGCTTCGGGTAACTCTCACAGTGGAGGCCTGTTTGGTGACTTTCTTCGCACCGACGTGCGTGACACAATGTTTGCAGAATATGAAGGTGGCTGTCACGTGGTCTGGGCTTCCTGGAGGTTTGAGCTGGGAGCTGAAGCCCCGTAGGAGTTCTGTAAGTCAAAAGGGAAGAGAAGAGCATTCCACGTAGAGAAAAGAATCTGTGCTCCAGGCGCGGTGGCTCACGATTGTAATCTCAGCACTTGGTGTCAGGCCTCTGAGCCCAGGCTAAGCCATTGTATATCCCCCGTGACCTGCATGTATACATCCAGATGGCCTGAAGCAGCTGAAGAACCACAAGAGAAGTGAAAATAGCCAGTTCCTGCCTTAACTGATGTCATTCCACCATTGTGATTTGTTCCTGTCCCACCTTTACTGATCAATTAACTTTGTGACATTTCTTCTCCTGGACAATGAGTCTCATGATCTCCCTACCCAGCACCTTGTGACCCCTGCCCCTGCCCGCAAGAGATAACCATCTTTAACTGTAACTTTCCACTACCTACCTAAATCCTGTAAAAACTGACCCACCCCCTATCTCCCTTTGCTGACTCCTTTTTCGGACTCAGCCCGCCTGCACCCAGGTGATTAAAAAGCTTTATTGTTCACATG

Test system: EE transcriptome
Assay: Genome-wide microarray transcript profiling of esophageal biopsies, EE patients vs normal individuals (EE transcriptome)
Settings: transcript level in esophageal biopsies of EE patients compared to normal individuals (NL); Affymetrix Human Genome U133 plus 2; p<0.01; >1 up-regulated, <1 down-regulated
Description: Esophageal tissue obtained from patients previously diagnosed with EE was analyzed. Diagnosis was based on analysis of excised tissue from endoscopic biopsy. Tissues from patients with EE, as well as patients not having EE (controls) were subjected to genome-wide microarray transcript profiling (Affymetrix GeneChip). All work was performed at the Core facility at Children's Hospital Medical Center (Cincinnati Ohio).
Briefly, RNA quality was first assessed using the Agilent bioanaiyzer (Agilent Technologies, Palo Alto Calif.). Only mRNA having a ratio of 28S/18S between 1.3 and 2 were subsequently used. RNA was converted to cDNA with Superscript choice for cDNA synthesis (Invitrogen, Carlsbad Calif.) and subsequently converted to biotinylated cRNA with Enzo High Yield RNA Transcript labeling kit (Enzo Diagnostics, Farmingdale N.Y.). After hybridization to the GeneChip (Affymetrix, Santa Clara Calif.), the chips were automatically washed and stained with streptavidin-phycoerythrin using a fluidics system. The chips were scanned with a Hewlett Packard GeneArray Scanner. Over 30,000 unique genes were screened.
Levels of gene transcripts were determined from data image files, using algorithms in the Microarray Analysis Suite software (Affymetrix). Levels from chip to chip were compared by global scaling. Each gene was typically represented by a probe set of 16 to 20 probe pairs. Each probe pair consisted of a perfect match oligonucleotide and a mismatch oligonucleotide that contained a one base mismatch at a central position. Two measures of gene expression were used, absolute call and average difference. Absolute call is a qualitative measure in which each gene is assigned a call of present, marginal or absent, based on the hybridization of the RNA to the probe set. Average difference is a quantitative measure of the level of gene expression, calculated by taking the difference between […] of every probe pair and averaging the differences over the entire probe set. Data were normalized and an EE transcriptome gene list was created with results having p<0.01 (Welch t-test with or without false rate discovery) and ≥1.5-fold change.
For evaluation of EE using clinical and/or physical assessment, biopsy tissues (obtained from the distal esophagus during routine endoscopy) were submerged in formalin for routine pathological analysis with hematoxylin and eosin staining. Diagnosis was established based on the maximum eosinophil count per high power field (hpf) and basal layer expansion according to method known in the art (e.g., established criteria in Rothenberg et al., Pathogenesis and clinical features of eosinophilic esophagitis. J Allergy Clin Immunol 108 (2001) 891; Attwood et al., Esophageal eosinophilia with dysphagia. A distinct clinicopathologic syndrome. Dig Dis Sci 38 (1993)109; Fox et al., Eosinophilic esophagitis: its not just kid's stuff. Gastrointest Endosc 56 (2002) 26, each of which is expressly incorporated by reference herein in its entirety. Normal individuals (NL), n=13, served as a control and were defined as having 0 eosinophils/hpf and no basal layer expansion. Individuals with EE (n=76) were defined as having >24 eosinophils/hpf and extensive basal layer hyperplasia (expansion to about >⅓ of epithelium).
The data were analyzed by cluster analysis and ordered (standard correlation (A) and distance (B)) using Genespring software. […] Each column represented a separate individual and each line a gene. RNA from each patient was subjected to chip analysis using Affymetrix Human Genome U133 GeneChip plus 2.

| Molecule | Fold Change |
| --- | --- |
| B1 | 0.61 |
| B2 | 0.62 |
| B3 | 0.627 |
| B4 | 0.62 |
| B5 | 0.612 |

Source: patent publication US10155985B2, “Evaluation of eosinophilic esophagitis” (CHILDREN'S HOSPITAL MEDICAL CENTER, priority 2004, dated 2018)
